T1: Roc domain (Homo sapiens, UniProt Q5S007)
T1 construct: A construct of the Roc domain spanning the residues 1329-1520 was cloned in the pET-28a vector providing an N-terminal His6-tag; His6 (N); made in house; host or cells: E. coli BL21(DE3)
T1 sequence (Q5S007 1329-1520): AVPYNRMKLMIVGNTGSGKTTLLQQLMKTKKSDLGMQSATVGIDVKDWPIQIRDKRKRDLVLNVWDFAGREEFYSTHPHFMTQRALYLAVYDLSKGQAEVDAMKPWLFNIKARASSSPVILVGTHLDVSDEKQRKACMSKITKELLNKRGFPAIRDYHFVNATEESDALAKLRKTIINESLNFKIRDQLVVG

B1: Nb42: LRRK2-specific Nanobody, SEQ ID NO: 6 (protein)
VHH: MAQVQLVESGGGLVQAGGSLRLSCAASGDVNYAVGWFRQAPRKEREFVAAINWRGDNTDYTDSVKGRFTISRDNAKNTVYLQMNSLKPEDTAVYYCAAKSAPYWYSDIAPDYWGQGTQVTVSS
modifications: Nanobody CA14259
B2: Nb23: LRRK2-specific Nanobody, SEQ ID NO: 3 (protein)
VHH: MAQVQLVESGGGLVQAGGSLRLSCAASGRTFSRYTMGWFRQAPGKDREFVARITTSGAVTTYADSAKGRFTISRDNAKNTVYLQMNTLKPEDTAVYYCAAGQGQLSSQSRFVDYWGQGTQVTVSS
modifications: Nanobody CA13612

What was measured:
Roc domain = biological target: T1, Roc domain; assay: Analytical size exclusion chromatography; format: binding; details: data not shown
full-length LRRK2 = biological target: T2, full-length LRRK2 (Homo sapiens, UniProt Q5S007, M2397T/R50H); assay: Microscale thermophoresis (MST) affinity measurement; format: binding; details: m-TAMRA-labeled Nb titrated with LRRK2; 500 μM GDP
T2 construct: Full-length human LRRK2 was expressed and purified based on previously developed protocols; SF tag (FLAG-tag + Twin-Strep-tag); made in house; host or cells: HEK 293T
Text: Binding isotherms are shown, obtained by titrating increasing concentrations of LRRK2 to fluorescently (m-TAMRA)-labeled Nbs and measuring the MST signals. Nbs are classified into four functional groups as defined in FIG. 2d with (FIG. 13A) group 1 Nbs, (FIG. 13B) group 2 Nbs, (FIG. 13C) group 3 Nbs, and (FIG. 13D) group 4 Nbs. In panel (FIG. 13E) two negative controls are shown, where LRRK2 was either titrated to free m-TAMRA or to a m-TAMRA-labeled irrelevant Nb. All measurements were performed in presence of 500 μM GDP, except for Nb42 where GTPγS was used. The corresponding equilibrium dissociation constants (Kd±standard error) obtained by fitting with a quadratic binding equation are given (each data point is the average of three independent measurements with the error bars representing the standard deviation; NB=no MST binding signal detectable).
To determine the binding affinity (dissociation constant KD) of the ten Nbs for LRRK2, two methods were used in parallel: microscale thermophoresis (MST) and bio-layer interferometry (BLI). […] For the BLI experiment LRRK2 was first trapped on a streptavidin-coated biosensor using biotinylated Nb40 as trapping agent (except to assess binding of Nb40, where Nb42 was used as trapping agent), after which binding of all Nbs to LRRK2 was determined. […]

T2 sequence (Q5S007 whole entry R50H/M2397T): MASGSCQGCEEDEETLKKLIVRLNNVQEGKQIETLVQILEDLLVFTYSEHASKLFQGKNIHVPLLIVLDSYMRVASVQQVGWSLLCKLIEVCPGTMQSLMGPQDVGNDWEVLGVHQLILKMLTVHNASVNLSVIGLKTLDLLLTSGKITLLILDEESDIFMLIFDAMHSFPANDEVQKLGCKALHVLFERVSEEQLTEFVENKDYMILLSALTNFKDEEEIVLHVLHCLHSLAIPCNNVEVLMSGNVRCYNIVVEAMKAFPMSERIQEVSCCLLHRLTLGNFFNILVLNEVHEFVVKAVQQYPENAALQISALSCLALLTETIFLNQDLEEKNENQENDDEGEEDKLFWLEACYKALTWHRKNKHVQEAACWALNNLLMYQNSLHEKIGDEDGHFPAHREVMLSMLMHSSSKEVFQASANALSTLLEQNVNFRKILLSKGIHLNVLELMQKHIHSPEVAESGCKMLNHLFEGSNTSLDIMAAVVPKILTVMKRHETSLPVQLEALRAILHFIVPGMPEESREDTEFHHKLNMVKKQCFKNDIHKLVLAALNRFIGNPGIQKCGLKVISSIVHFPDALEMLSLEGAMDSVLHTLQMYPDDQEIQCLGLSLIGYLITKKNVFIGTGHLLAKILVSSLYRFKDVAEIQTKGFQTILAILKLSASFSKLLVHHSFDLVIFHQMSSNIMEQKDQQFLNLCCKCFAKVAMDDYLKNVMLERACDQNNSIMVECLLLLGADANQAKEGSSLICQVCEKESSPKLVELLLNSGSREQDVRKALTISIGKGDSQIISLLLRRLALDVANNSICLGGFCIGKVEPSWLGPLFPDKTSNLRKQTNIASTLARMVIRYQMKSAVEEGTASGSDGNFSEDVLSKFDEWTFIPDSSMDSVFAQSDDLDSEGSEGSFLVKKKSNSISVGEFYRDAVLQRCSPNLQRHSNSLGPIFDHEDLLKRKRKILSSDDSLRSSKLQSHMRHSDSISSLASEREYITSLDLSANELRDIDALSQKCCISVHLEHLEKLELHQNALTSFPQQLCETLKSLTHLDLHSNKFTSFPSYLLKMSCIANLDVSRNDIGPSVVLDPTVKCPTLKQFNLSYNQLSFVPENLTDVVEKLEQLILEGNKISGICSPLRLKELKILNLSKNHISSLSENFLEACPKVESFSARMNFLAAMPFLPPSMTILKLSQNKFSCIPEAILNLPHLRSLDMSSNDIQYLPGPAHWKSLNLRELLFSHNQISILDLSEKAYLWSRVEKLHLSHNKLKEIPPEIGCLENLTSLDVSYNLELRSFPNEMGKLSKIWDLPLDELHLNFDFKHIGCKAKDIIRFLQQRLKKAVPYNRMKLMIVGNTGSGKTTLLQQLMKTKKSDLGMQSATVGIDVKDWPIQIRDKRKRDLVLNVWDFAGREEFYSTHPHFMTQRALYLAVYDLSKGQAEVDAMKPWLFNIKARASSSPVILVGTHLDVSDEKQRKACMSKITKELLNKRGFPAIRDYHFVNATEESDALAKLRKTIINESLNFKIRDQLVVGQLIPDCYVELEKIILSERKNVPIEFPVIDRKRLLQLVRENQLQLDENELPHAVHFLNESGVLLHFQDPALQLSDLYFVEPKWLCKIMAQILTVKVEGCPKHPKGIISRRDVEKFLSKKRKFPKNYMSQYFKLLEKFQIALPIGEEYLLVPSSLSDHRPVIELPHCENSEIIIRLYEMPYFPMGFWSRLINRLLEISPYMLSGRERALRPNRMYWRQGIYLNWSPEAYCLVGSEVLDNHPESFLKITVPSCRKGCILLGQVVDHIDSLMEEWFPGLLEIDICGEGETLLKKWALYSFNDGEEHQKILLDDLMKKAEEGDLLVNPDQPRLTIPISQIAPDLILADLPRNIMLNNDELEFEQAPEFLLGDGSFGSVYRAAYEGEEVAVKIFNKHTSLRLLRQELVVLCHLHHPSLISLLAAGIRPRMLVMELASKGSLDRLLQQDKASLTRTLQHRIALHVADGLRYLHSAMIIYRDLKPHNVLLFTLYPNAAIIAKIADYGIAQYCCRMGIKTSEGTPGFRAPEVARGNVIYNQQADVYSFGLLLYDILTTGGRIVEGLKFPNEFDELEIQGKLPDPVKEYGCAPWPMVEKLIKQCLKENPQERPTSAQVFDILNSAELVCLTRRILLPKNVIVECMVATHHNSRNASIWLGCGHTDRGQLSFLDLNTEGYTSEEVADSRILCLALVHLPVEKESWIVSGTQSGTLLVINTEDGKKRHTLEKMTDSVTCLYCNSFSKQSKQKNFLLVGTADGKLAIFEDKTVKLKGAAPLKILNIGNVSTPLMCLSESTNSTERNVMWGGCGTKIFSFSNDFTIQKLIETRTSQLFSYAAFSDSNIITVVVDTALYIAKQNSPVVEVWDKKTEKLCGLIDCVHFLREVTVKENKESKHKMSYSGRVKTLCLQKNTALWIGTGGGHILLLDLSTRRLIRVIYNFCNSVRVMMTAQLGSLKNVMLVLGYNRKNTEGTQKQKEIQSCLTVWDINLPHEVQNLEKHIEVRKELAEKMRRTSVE

Molecule | binding to Roc (Roc domain) | KD (nM)-MST (full-length LRRK2)
B1 | binding to Roc was confirmed | –
B2 | – | did not generate a change in thermophoresis behavior

Reference: patent US20230087785A1, “Leucine-Rich Repeat Kinase 2 Allosteric Modulators” (VIB VZW, priority 2020, published 2023)
